This is an account of results in the DeepSol protein solubility set.

This data set in a line: soluble on expression in E. coli; label from the status in PepcDB or PDB records.
“MSLSHIRPDFPEPYGLPVDGLRGKTSIFSHPVYLFLREFSLQDSRGGSLSKKAESLSSGKITIGTKEKVIIINELRQCHPLSQLLVIADLPRSTFYYHVKRLNAPDPYQLVKQVILRIYHQHKGRYGYRRIRLACRNESILLNGKTIRKLMKELGISSLIRRKKYRTYRGEQGRTCNNLLKRQFYADRPNQKWVTDVTEFKVDGRKLYLSPIMDLYNGEIVSYNLTERPLASMVKSMLLDAVEQLNKDDKPLLHSDQGWQYQMPRWQRWLSDNGITQSMSRRGNCLDNAAMESFFSTLKEGHHHHHH”: the “soluble on expression in E. coli” value was “not soluble”. As for “MSLSIFSHFQERFEATRQEEYSLQEYLDLCKQDKTAYASAAERLLMAIGEPELLDTSVDSRLSRIFSNKVIRRYPAFADFHGMEECIDQIVAFFRHAAQGLEEKKQILYLLGPVGGGKSSLAEKLKQLMEKVPFYAIKGSPVFESPLGLFNPDEDGAILEEDYGIPRRYLRSIMSPWATKRLNEFGGDISQFRVVKLYPSILNQIAIAKTEPGDENNQDISALVGKVDIRKLEEYPQNDADAYSYSGALCRANQGLMEFVEMFKAPIKVLHPLLTATQEGNYNSTEGLGALPYSGIILAHSNESEWHSFRNNKNNEAFIDRIYIVKVPYCLRVADEIKIYDKLLVNSSLAHAHCAPDTLKMLSQFSVLSRLKEPENSNIYSKMRVYDGENLKDTDPKAKSIQEYRDSAGVDEGMAGLSTRFAFKILSKVFNFDPHEVAANPVHLLYVLEQQIEQEQFQPETRERYLRFIKEYLAPRYVEFIGKEIQTAYLESYSEYGQNIFDRYVLYADFWIQDQEYRDPETGEILNRAALNEELEKIEKPAGISNEGHHHHHH”, the entry is “not soluble”; as for “MSLSIQRILFPTDFSDGARRAFPQAAHLADWHDAGLHILNVTGRHRHDHEETTANFPIATDTLTKWLRRPEKSVRGANWPDLEALPITQEQVESAEPAERILAYAEDEAIDLIVMGTHGRRGVDRMLFGSVTEEVVRKAPCPTLTVRADADVAPDQAVRRVLAPVDFSDASRSAVRHAKEIALTYGAEIDLLHVVEEPFYPPAYGLGETGFPTDKVIGSVEDELADLARSEVGYEHVMIEARTGEPSREILNYIDENEVDLTVIASHGRTGLDRMLIGSVAERVVRQSPTPVFVAKPDRAALVSSDAAEGHHHHHH”, “not soluble”. For the sequence “MSLSKENIRKTSKIETKSKEFSRQNMIDLFDLYFYEDCPYQDESAELLRLVGRGKMRIVSRENGTSACAGDLAGYYEKKGLKVLNYFRDGENFKPGDAIFEAEGDIKLIFRFWRVSQTFLTMMCAIATKTASMVSEARRTNPDIIIATSRKTHPGARIFELKAVRAGGGDIHRNSLSDSIQISQNHLEVAGELGKLRAMKKIEIEPRSREEAFKYAEMSDIMLLDHLSPEELRELGPELKELNPELELAVGGIEAKRIPEYAPFVDIIVISAPYYANPLDFTTKIEREGHHHHHH”, the “soluble on expression in E. coli” value was “soluble”. As for “MSLSKMEEILVIGVNTRPVVESAFRLGYRVYSAGYYCTADFKHYTERRCILRERSGESCGRFHENFSQEKLLEAASDFIERADGIIPLTGAPPLPGEKVLGNSRVDHVEDKYRLYRRIRNSYPTPETHLISDPAEAMEIVAAGEKKYIAKPVSGAGGFGVTEFREGDGEFLLQEYIEGVPVSASVLSTGEDAITVLTSRQIIDRGVPGFEGQFVYAGNMTPGPSGEIEDLASDLILDLSLRGSNGVDLIMRDSELYVIEVNPRIQGTFECAEASLGINMVDAHIRACMGELIEKPDPVSYAVKRILYAPARCRVGEIKTMGVHDLPVPGTIIEEGEPLLTVLASHNSMEAAENLASNICSRVKKELHYLRCPPPRPQGVEGHHHHHH”, the entry is “not soluble”. As for “MSLSKYKPTWMIDAIYKITPAQLKKLGIKAVLTDLDNTLIAWNNPDGTEELKTWLLEMKNAGITVLVVSNNKDSRIKRVVEKFDLDYVARALKPTARGFKLAEKKLGLKPSEMLMVGDQIMTDIRGANAAGIRNVLVQPIVDTDGWNTRINRFFERKIMKYLSKKHPEMTWRGGLEEGHHHHHH”, the “soluble on expression in E. coli” value is listed as “soluble”. As for “MSLSLDFSDNTFQPLAARMRPENLAQYIGQQHLLAAGKPLPRAIEAGHLHSMILWGPPGTGKTTLAEVIARYANADVERISAVTSGVKEIREAIERARQNRNAGRRTILFVDEVHRFNKSQQDAFLPHIEDGTITFIGATTENPSFELNSALLSRARVYLLKSLSTEDIEQVLTQAMEDKTRGYGGQDIVLPDETRRAIAELVNGDARRALNTLEMMADMAEVDDSGKRVLKPELLTEIAGERSARFDNKGDRFYDLISALHKSVRGSAPDAALYWYARIITAGGDPLYVARRCLAIASEDVGNADPRAMQVAIAAWDCFTRVGPAEGERAIAQAIVYLACAPKSNAVYTAFKAALADARERPDYDVPVHLRNAPTKLMKEMGYGQEYRYAHDEANAYAAGEVYFPPEIAQTRYYFPTNRGLEGKIGEKLAWLAEQDQNEGHHHHHH”, the entry is “soluble”; as for “MSLSLKIALISQNENLLNLFPKLALEKNFIPITKTASLTRASKIAFGLQDEVDAIISRGATSDYIKKSVSIPSISIKVTRFDTMRAVYNAKRFGNELALIAYKHSIVDKHEIEAMLGVKIKEFLFSSEDEITTLISKVKTENIKIVVSGKTVTDEAIKQGLYGETINSEGHHHHHH”, “not soluble”; as for “MSLSLLSKLDVSPLQFQDPSKDGSKIINLNLDGSGDPLRLSELGESDYSNSIKVRDNEYVTYHLSNDYSVLTIYSMNDALQNKTINIKLPVQSTNKQHTSIVFVKDEAFNVEFILRNSIYLKISIPIDFIINNSSELNEDWFYVLQPYDFSVRKPHMLHRVSDNFSVVFLEDGGLVGLTSHGETDLEPILFNDNSYLQSITRLFSKSKHSKNSKVVSCSNYQSNFLIVLTEDCILKIWDLKKLILINEYNLFDVNNSDFIAGGLFDSCGNYLHLFNNLLTIYLPFTNGLFQVGTLDVDSSDKLTFQSKIVIPSNLPASSLWSLTDMRMINPLDLNLPETFLNIIVLWKSGTMSKLQILNILNESVDSYEWIDASNKDLEETRIESDIESSDFSKTLFKLTSRYPKAIVDRAIKVLEENGISIPLQEALDEEYLANLETLLRDIKGGCDEASSLTLYNDEIIVINCLQKYNYSIYKINCSLEKTYFDINDDSEGHHHHHH”, “soluble”. As for “MSLSLSLAEARRLALAAQGFDGRRTRRSVQRRHLREMLARLGLLQIDSVNALVRSHYLPLFSRLGPYSMTLLDEAAWSVGRHRQLFEYWGHEASLLPLEHYPLMRWRMRQAADGQGIYQQLARFGREQQPLIRQVLQAVREQGALGAGSLSTRQERAGPWWDWSAEKHALEWLFAAGELTVAGRRGFERLYDLPERVFPAELLARPELSEAQAQRELLRMAASALGVATEKDLRDYYRLSPAQSRARLAELVEAGELLPVRVEGWSQPAYCPGEPQVPRRLGASALLSPFDSLVWERARAERLFDFRYRLEIYTPKEKRVYGYYVLPFLYNGRLVGRVDLRAERARERLVVHALHAEANGMDDAALHELAEQLRSMAAWLGLATVAIEGRGELAVRLRGVLLLEHHHHHH”, the entry is “not soluble”; as for “MSLSMCGNKISVIRPLPAEVVKKIAAGEIIARPSSAIKELIENSVDAGATEIRVNLSSNPLDFCEIIDNGSGVSEKDLMIICQRYTTSKTTDSIEGVRSLGFRGEALSSLSQNSHVTISSRTENENMRTVMTYSECEPVLDEIRYEEGPRGFHLKYENLFYNYEIRSKSLLSNINSEFISCLHLVQKYSIHFPNINFVFNRTSSPILDLNNLNNVSSQQSSGSGSGDSCSSQPNCNFSTSSRFDDYDSSDDELDITLTQKLEYDYHYFTKMYDDPKSDDLRTEYIRNVEKVSFDCLRVIKENIKRIYGLKVSNVLQEVVFNNFDDLFFNCKGLISHPNQPCKLDMFILFVNNRLIDLPNLRRMIFNTYNDITNNRYRRFVYLSIFVPYDQIDSNIHPTKKRIMIENQAEIVEQITKFFHDKITELIKSATTEGHHHHHH”, “soluble”; as for “MSLSMEFDAVIIGGGVSGCATFYTLSEYSSLKRVAIVEKCSKLAQISSSAKANSQTIHDGSIETNYTPEKAKKVRLSAYKTRQYALNKGLQNEVIFETQKMAIGVGDEECEFMKKRYESFKEIFVGLEEFDKQKIKELEPNVILGANGIDRHENIIGHGYRKDWSTMNFAKLSENFVEEALKLKPNNQVFLNFKVKKIEKRNDTYAVISEDAEEVYAKFVLVNAGSYALPLAQSMGYGLDLGCLPVAGSFYFVPDLLRGKVYTVQNPKLPFAAVHGDPDAVIKGKTRIGPTALTMPKLERNKCWLKGISLELLKMDLNKDVFKIAFDLMSDKEIRNYVFKNMVFELPIIGKRKFLKDAQKIIPSLSLEDLEYAHGFGEVRPQVLDRTKRKLELGEKKICEGHHHHHH”, “not soluble”.
